# Reference: IntAct's records for PubMed 23112296
# B1: Keratin, type I cytoskeletal 18 (Homo sapiens), P05783 (parent)
# chain: MSFTTRSTFSTNYRSLGSVQAPSYGARPVSSAASVYAGAGGSGSRISVSRSTSFRGGMGSGGLATGIAGGLAGMGGIQNEKETMQSLNDRLASYLDRVRSLETENRRLESKIREHLEKKGPQVRDWSHYFKIIEDLRAQIFANTVDNARIVLQIDNARLAADDFRVKYETELAMRQSVENDIHGLRKVIDDTNITRLQLETEIEALKEELLFMKKNHEEEVKGLQAQIASSGLTVEVDAPKSQDLAKIMADIRAQYDELARKNREELDKYWSQQIEESTTVVTTQSAEVGAAETTLTELRRTVQSLEIDLDSMRNLKASLENSLREVEARYALQMEQLNGILLHLESELAQTRAEGQRQAQEYEALLNIKVKLEAEIATYRRLLEDGEDFNLGDALDSSNSMQTIQKTTTRRIVDGKVVSETNDTKVLRH
# Variants of: B1
# Details: with becn1_human BECN1, Q14457
# becn1_human BECN1, Q14457, sequence (Q14457 whole entry): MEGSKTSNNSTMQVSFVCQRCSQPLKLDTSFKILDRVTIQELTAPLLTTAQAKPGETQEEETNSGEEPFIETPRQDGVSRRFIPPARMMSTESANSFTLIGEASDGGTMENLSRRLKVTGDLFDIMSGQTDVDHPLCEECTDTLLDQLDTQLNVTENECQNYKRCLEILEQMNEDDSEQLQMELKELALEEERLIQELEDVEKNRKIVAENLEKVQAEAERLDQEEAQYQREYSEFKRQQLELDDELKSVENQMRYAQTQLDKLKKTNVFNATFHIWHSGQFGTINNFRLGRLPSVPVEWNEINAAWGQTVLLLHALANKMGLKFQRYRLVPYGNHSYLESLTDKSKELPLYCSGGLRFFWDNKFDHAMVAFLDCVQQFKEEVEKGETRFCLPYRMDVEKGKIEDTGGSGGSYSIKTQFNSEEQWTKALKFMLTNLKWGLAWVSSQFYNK
row,effect of a mutation on the interaction,Variant
1,disrupting interaction strength,MSFTTRSTFSTNYRSLGSVQAPSYGARPVSSAAAVYAGAGGSGSRISVSRSTSFRGGMGSGGLATGIAGGLAGMGGIQNEKETMQSLNDRLASYLDRVRSLETENRRLESKIREHLEKKGPQVRDWSHYFKIIEDLRAQIFANTVDNARIVLQIDNARLAADDFRVKYETELAMRQSVENDIHGLRKVIDDTNITRLQLETEIEALKEELLFMKKNHEEEVKGLQAQIASSGLTVEVDAPKSQDLAKIMADIRAQYDELARKNREELDKYWSQQIEESTTVVTTQSAEVGAAETTLTELRRTVQSLEIDLDSMRNLKASLENSLREVEARYALQMEQLNGILLHLESELAQTRAEGQRQAQEYEALLNIKVKLEAEIATYRRLLEDGEDFNLGDALDSSNSMQTIQKTTTRRIVDGKVVSETNDTKVLRH [S34A]
